Target: Human interleukin-2 (IL-2) (human) (UniProt P60568)
Assay: SPR (BIAcore 3000), data not shown

Kd: 100 pM
Substance: oriented (Or) Fab'602: Fab' fragment of MAB602 biotinylated in the hinge region
